One test has as its target FcRn (UniProt P55899). Kind of test: SPR. (Surface plasmon resonance follows binding to a sensor surface in real time, without labels.)
The next test deals with FcγRI (UniProt P12314). The experiment in a line: SPR.
UniProt P12314, sequence (P12314 16-374): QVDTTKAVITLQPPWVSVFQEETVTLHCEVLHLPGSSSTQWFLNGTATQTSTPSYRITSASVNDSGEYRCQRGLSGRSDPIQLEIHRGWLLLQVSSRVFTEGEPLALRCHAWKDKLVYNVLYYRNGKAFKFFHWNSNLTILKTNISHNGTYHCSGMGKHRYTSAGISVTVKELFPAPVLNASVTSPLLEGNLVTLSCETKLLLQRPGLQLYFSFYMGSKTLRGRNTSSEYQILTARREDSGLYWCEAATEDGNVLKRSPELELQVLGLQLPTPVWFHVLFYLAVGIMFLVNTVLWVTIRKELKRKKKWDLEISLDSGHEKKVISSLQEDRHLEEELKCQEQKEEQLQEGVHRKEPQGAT

UniProt P55899, sequence (P55899 whole entry, looked up, tested part not stated): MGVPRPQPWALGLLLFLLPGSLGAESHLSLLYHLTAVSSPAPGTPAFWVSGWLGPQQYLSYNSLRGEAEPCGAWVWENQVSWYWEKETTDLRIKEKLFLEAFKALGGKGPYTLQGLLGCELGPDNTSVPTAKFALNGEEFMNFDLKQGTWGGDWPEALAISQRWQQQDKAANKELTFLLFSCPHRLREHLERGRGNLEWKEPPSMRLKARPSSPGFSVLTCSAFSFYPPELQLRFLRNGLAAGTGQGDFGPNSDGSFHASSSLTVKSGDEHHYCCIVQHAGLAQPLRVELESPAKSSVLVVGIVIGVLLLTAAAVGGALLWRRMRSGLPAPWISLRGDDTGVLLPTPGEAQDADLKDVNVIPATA

By Kd is commonly meant the constant that tells how readily two partners part at equilibrium. Consider CLN-049 (bispecific antibody), for which the Kd in the test with FcRn and with FcγRI was more than 1000 µM throughout.

These data come from paper PMC8921914.
